Reference: the RNAGym collection of RNA variant scans (doi:10.7554/elife.90254)

B1: LINE1-mini (parent)
chain: GGCAGAGCUCAACACAGCGUGGCAAAGUGGCUGUGGCUAGACUGCC

Variants of: B1
Experiment: self-cleavage, relative activity (ratio to wild type); higher = more cleavage; in vitro, sequencing; the parent is a self-cleaving ribozyme

Row | Variant | self-cleavage
1 | GGCAGAGCUCAACACAGCCUGGCAAAGUGGCUCUGGCUAGACUGCC [G19C G33C] | 0.12
2 | GGCAGAGCUCAACACAGGGUGGCAAAGUGGCUGUAGCUAGACUGCC [C18G G35A] | 0.07
3 | GGCAGAGCUCAACACAUUGUGGCAAAGUGGCUGUGGCUAGACUGCC [G17U C18U] | 0.12
4 | GGCAGAGGUCAACAAAGCGUGGCAAAGUGGCUGUGGCUAGACUGCC [C8G C15A] | 0.11
5 | GGCAGAGCUCAACACAGCGUGGCAAAGUGGCCGUGGCUAGCCUGCC [U32C A41C] | 0.09
6 | GGCAGAGCUCAACACAGGGUGGCAAAGUGGCUGUGGCUAGAAUGCC [C18G C42A] | 0.07
7 | GGCAGAGCUCAACACAGCGUGGCAUAGUGGCUGUGGAUAGACUGCC [A25U C37A] | 0.06
8 | GGCACAGCCCAACACAGCGUGGCAAAGUGGCUGUGGCUAGACUGCC [G5C U9C] | 0.04
9 | GGCAGAGCUCAACACAGCGAGGCAAAGUGGCUGUGGCUAGAUUGCC [U20A C42U] | 0.12
10 | GGCAAAGUUCAACACAGCGUGGCAAAGUGGCUGUGGCUAGACUGCC [G5A C8U] | 0.44
11 | GGCAGAGCUCAACACAGCGUGGCAAACUGGCUGUGGCUAGAUUGCC [G27C C42U] | 0.11
12 | GGUAGAGCUCAACACAGAGUGGCAAAGUGGCUGUGGCUAGACUGCC [C3U C18A] | 0.23
13 | UGCAGAGCUCAACACAGCGUGGCAAAGGGGCUGUGGCUAGACUGCC [G1U U28G] | 0.2
14 | GGCAGAGCUCAACACAGCGUGGCAAAGUGGCUGUGGCUAGACGUCC [U43G G44U] | 0.25
15 | GGCAGAGCUCAAUUCAGCGUGGCAAAGUGGCUGUGGCUAGACUGCC [C13U A14U] | 0.1
16 | GGCAGAGCUCAACACAGCGUGGCAAAGUGCCUGUGGCUAGACCGCC [G30C U43C] | 0.25
17 | GGCAGAGCUCAACACAGCGUGGCAAAGUGGCUGUUGCUUGACUGCC [G35U A39U] | 0.1
18 | GGCAGAGCUUAACACAGCGUGGCACAGUGGCUGUGGCUAGACUGCC [C10U A25C] | 0.21
19 | CGCAGAGCUUAACACAGCGUGGCAAAGUGGCUGUGGCUAGACUGCC [G1C C10U] | 0.04

Row | Variant | self-cleavage
20 | GGCAGAGCUCAACACAGCGUGGCUAAGUGGCUGUGGCUAGCCUGCC [A24U A41C] | 0.07
21 | GGCAAAGCUCAACACAGCGUGGCAAAGUGGCUGUCGCUAGACUGCC [G5A G35C] | 0.08
22 | GCCAGAGCUCACCACAGCGUGGCAAAGUGGCUGUGGCUAGACUGCC [G2C A12C] | 0.02
23 | GGCAGAGCUCAACACAUCGUGGCAAAGUUGCUGUGGCUAGACUGCC [G17U G29U] | 0.43
24 | GGCAGAGCUCAACACAGCGUGCCAAAGUGGCUGUGGUUAGACUGCC [G22C C37U] | 0.02
25 | GGCAGAGCUCAACACAGCGUGGCAAAGUGGCUGUGGCUAGACUGGC [C45G] | 0.39
26 | GGCAGAGCUCAACACAGCGUGGCAAAGUGGCUGUGGGUAGACCGCC [C37G U43C] | 0.09
27 | GGCAGAGCUCAACGGAGCGUGGCAAAGUGGCUGUGGCUAGACUGCC [A14G C15G] | 0.08
28 | GGCACAGCUCAACACAGCGUGGCAAAGUGGCUGUGGCUAGUCUGCC [G5C A41U] | 0.09
29 | GGCAGAGCUCACCUCAGCGUGGCAAAGUGGCUGUGGCUAGACUGCC [A12C A14U] | 0.05
30 | GGCAGAGCGCAACACAGCGUGGCAAAGUGGCUGUCGCUAGACUGCC [U9G G35C] | 0.03
31 | GGCAGAGCUCAACACAGCGUGGCAAAGUGGCAGUAGCUAGACUGCC [U32A G35A] | 0.04
32 | GGCAGAGCUCGACACAGCGGGGCAAAGUGGCUGUGGCUAGACUGCC [A11G U20G] | 0.03
33 | GGCAGAGCGCAACACAGCGUGGCAAAAUGGCUGUGGCUAGACUGCC [U9G G27A] | 0.07
34 | GGCACAGCUCAACACAGCGUGGCAAAGUGGCUGUGGCUAGACUGAC [G5C C45A] | 0.05
35 | GGCAGAUCUCAAUACAGCGUGGCAAAGUGGCUGUGGCUAGACUGCC [G7U C13U] | 0.15
36 | GGCAGAUCUCAAGACAGCGUGGCAAAGUGGCUGUGGCUAGACUGCC [G7U C13G] | 0.08
37 | GGCAGAGCUCAACACAGCGUGGCCAAUUGGCUGUGGCUAGACUGCC [A24C G27U] | 0.55
38 | UGCAGAGCUCAACACAGCGUGCCAAAGUGGCUGUGGCUAGACUGCC [G1U G22C] | 0.23

Row | Variant | self-cleavage
39 | GCCAGAGCUCAAUACAGCGUGGCAAAGUGGCUGUGGCUAGACUGCC [G2C C13U] | 0.18
40 | GGCAGAGCUCAACACAGCGUGGCAGAGUGGCUGCGGCUAGACUGCC [A25G U34C] | 0.07
41 | GGCAGAGCUCAACACAGCCUGGGAAAGUGGCUGUGGCUAGACUGCC [G19C C23G] | 0.42
42 | GGCAGAGCUCACCACAGCGUGGCAAAGUGACUGUGGCUAGACUGCC [A12C G30A] | 0.03
43 | GGCAGAGCUCAACACAGCAUGGCAAAGUGGCUGUGGCCAGACUGCC [G19A U38C] | 1.09
44 | GGGUGAGCUCAACACAGCGUGGCAAAGUGGCUGUGGCUAGACUGCC [C3G A4U] | 0.36
45 | GGCAGAGCUCAACACAGGGUGGCAAUGUGGCUGUGGCUAGACUGCC [C18G A26U] | 0.42
46 | GGCAGAGCUCAACACAGCGUGGCAAAGUGGCUCUGCCUAGACUGCC [G33C G36C] | 0.04
47 | GGCAGAGCUCAACACCGCGUGGCAAAGUGUCUGUGGCUAGACUGCC [A16C G30U] | 0.05
48 | GGCAGAACUCAACACACCGUGGCAAAGUGGCUGUGGCUAGACUGCC [G7A G17C] | 0.18
49 | GGCAGAGCUCAACACAGCGUGGCAACGUGGCUGUGGCUAGACCGCC [A26C U43C] | 0.25
50 | AGCAGACCUCAACACAGCGUGGCAAAGUGGCUGUGGCUAGACUGCC [G1A G7C] | 0.6
51 | GGCAGAGCUCAACGCAGCGUGGCAAAGUGGUUGUGGCUAGACUGCC [A14G C31U] | 0.04
52 | GGCAGAGCUCAACACACCGUGGCAAAGUGGCUGUGGCUAGACUCCC [G17C G44C] | 0.05
53 | GGCAGAGCUCAACACAGCGUGGCAAAGAGGCUGUGGCUAGAUUGCC [U28A C42U] | 0.22
54 | GGCAGAGCUCGACACAGCGUGGCAAACUGGCUGUGGCUAGACUGCC [A11G G27C] | 0.03
55 | CGCAGAGCUCAACACAGCGUGGCAAAGUGGCUGUGGGUAGACUGCC [G1C C37G] | 0.02
56 | GGCAGAGCUCAACACAGCUUGGCAAAAUGGCUGUGGCUAGACUGCC [G19U G27A] | 0.54
